The values below are quoted from earlier work in article PMC3218054, “Characterisation of the Interaction of the C-Terminus of the Dopamine D2 Receptor with Neuronal Calcium Sensor-1” (PLoS ONE, 2011).

“Also recorded” adds a separate entry of the source.

The subject of this series is NCS-1. The conditions noted are these: D3 receptor. An excerpt: Ultimately, it would be important to understand how NCS-1 interacts with the intact receptor. We, therefore, constructed a model of the NCS-1-D3 receptor complex using the AIR derived from the D2SR peptide-NCS-1 chemical mapping data, and taking into consideration that many of the hydrophobic residues at the C-terminus of D3 receptor are involved in intramolecular interactions with helix I of the receptor [45]. HADDOCK docking produ ... || Biophysical analysis of NCS-1 was consistent with the protein being monomeric in the presence or absence of Ca ^2+.

B1: D3 receptor: dopamine D3 receptor (PDB Accession 3PBL), docked onto NCS-1 (protein, UniProt P35462 1-400, looked up)
D(3) dopamine receptor: MASLSQLSGHLNYTCGAENSTGASQARPHAYYALSYCALILAIVFGNGLVCMAVLKERALQTTTNYLVVSLAVADLLVATLVMPWVVYLEVTGGVWNFSRICCDVFVTLDVMMCTASILNLCAISIDRYTAVVMPVHYQHGTGQSSCRRVALMITAVWVLAFAVSCPLLFGFNTTGDPTVCSISNPDFVIYSSVVSFYLPFGVTVLVYARIYVVLKQRRRKRILTRQNSQCNSVRPGFPQQTLSPDPAHLELKRYYSICQDTALGGPGFQERGGELKREEKTRNSLSPTIAPKLSLEVRKLSNGRLSTSLKLGPLQPRGVPLREKKATQMVAIVLGAFIVCWLPFFLTHVLNTHCQTCHVSPELYSATTWLGYVNSALNPVIYTTFNIEFRKAFLKILSC
As to B1, the “ability to bind NCS-1” value was “shown to bind to the dopamine D3 receptor and to regulate its internalisation; also recorded: can also bind to NCS-1”.
